Laboratory results: article PMC3857619 (2013)

Molecular target: recombinant PTB (Homo sapiens (Human), UniProt P26599)
Test: in vitro co-IP (anti-PTB) with western blot

recombinant PTB, sequence (P26599 whole entry): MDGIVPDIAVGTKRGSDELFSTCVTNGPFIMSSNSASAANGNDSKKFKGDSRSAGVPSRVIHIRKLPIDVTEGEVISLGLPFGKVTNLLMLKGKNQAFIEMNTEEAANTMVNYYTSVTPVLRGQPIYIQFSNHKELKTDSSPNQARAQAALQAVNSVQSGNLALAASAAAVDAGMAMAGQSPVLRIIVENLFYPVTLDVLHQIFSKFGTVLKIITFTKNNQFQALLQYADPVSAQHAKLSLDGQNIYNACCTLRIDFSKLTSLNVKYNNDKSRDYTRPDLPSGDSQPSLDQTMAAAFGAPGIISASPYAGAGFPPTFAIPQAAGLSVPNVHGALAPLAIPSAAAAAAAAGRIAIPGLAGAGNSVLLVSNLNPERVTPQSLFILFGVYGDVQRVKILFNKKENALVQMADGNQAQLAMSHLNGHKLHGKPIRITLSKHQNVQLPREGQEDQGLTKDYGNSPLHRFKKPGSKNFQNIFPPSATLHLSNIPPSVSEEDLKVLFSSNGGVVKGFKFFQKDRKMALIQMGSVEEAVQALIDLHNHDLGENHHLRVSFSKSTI

binding result: binds
B1: recombinant hnRNPA1 (protein)
chain: MSKSESPKEPEQLRKLFIGGLSFETTDESLRSHFEQWGTLTDCVVMRDPNTKRSRGFGFVTYATVEEVDAAMNARPHKVDGRVVEPKRAVSREDSQRPGAHLTVKKIFVGGIKEDTEEHHLRDYFEQYGKIEVIEIMTDRGSGKKRGFAFVTFDDHDSVDKIVIQKYHTVNGHNCEVRKALSKQEMASASSSQRGRSGSGNFGGGRGGGFGGNDNFGRGGNFSGRGGFGGSRGGGGYGGSGDGYNGFGNDGGYGGGGPGYSGGSRGYGSGGQGYGNQGSGYGGSGSYDSYNNGGGGGFGGGSGSNFGGGGSYNDFGNYNNQSSNFGPMKGGNFGGRSSGPYGGGGQYFAKPRNQGGYGGSSSSSSYGSGRRF
